In patent US20210101982A1 (Seagen, published 2021):

What was measured:
[1] = molecular target: PD-L1 on cells (cancer cell lines expressing PD-L1; PD-L1+ aAPC/CHO-K1 cells) (human, UniProt Q9NZQ7 19-290); assay: cell-based or functional assay
[2] = molecular target: T1, human PD-L1 (Acro Biosciences) (human, UniProt Q9NZQ7 19-238); assay: BLI (Octet Red 384), antibody on anti-human Fab-CH1 sensors, human PD-L1 in solution, monovalent;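 further: after association, a 1000 s dissociation phase ran in buffer without PD-L1, on- and off-rate constants came from fitting the binding curves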
T1 construct: Bought protein, used in solution as the analyte in BLI; also called hPD-L1; CD274
T1 sequence (Q9NZQ7 19-238 limits assumed): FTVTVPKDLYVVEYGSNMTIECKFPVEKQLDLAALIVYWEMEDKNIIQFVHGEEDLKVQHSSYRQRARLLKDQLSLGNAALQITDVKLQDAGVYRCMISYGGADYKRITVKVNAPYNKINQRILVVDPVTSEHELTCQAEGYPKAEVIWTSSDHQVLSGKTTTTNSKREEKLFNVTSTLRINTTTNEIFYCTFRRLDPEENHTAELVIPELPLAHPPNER

[3] = molecular target: T1, human PD-L1 (Acro Biosciences); assay: BLI (Octet Red 384), antibody on sensors, human PD-L1 in solution; head prints x10^3 S^-1, read as x10^-3 as KD = koff/kon requires

PD-L1 on cells (cancer cell lines expressing PD-L1; PD-L1+ aAPC/CHO-K1 cells), sequence (Q9NZQ7 19-290): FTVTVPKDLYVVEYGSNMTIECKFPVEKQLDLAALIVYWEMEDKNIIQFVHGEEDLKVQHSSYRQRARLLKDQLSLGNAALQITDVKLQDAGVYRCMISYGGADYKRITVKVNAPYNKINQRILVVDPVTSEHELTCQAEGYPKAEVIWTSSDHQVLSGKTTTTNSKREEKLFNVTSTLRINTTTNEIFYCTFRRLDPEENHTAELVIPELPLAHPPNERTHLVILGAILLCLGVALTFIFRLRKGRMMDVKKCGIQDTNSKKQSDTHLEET

Row | Binder | x50 (50% reduction in viability, CellTiter-Glo, 96 h) on 786-O cells [1] | x50 (50% reduction in viability, CellTiter-Glo, 96 h) on BXPC3 cells [1] | x50 (50% reduction in viability, CellTiter-Glo, 96 h) on KARPAS 299 cells [1] | x50 (50% reduction in viability, CellTiter-Glo, 96 h) on L540CY cells [1] | x50 (50% reduction in viability, CellTiter-Glo, 96 h) on MDA-MB-231 cells [1] | Kd [2] | kon [2] | koff [3]
1 | SG-559-02 - vc-MMAE (antibody, human IgG1, kappa, V domains shown, vc-MMAE drug-linker, average DAR of 4; sites not stated in the example) VH: QVQLVQSGAEVKKPGSSVKVSCKTSGDTFSTYAISWVRQAPGQGLEWMGGIIPIFGKAHYAQKFQGRVTITADESTSTAYMELSSLRSEDTAVYFCARKFHFVSGSPFGMDVWGQGTTVTVSS VL: EIVLTQSPATLSLSPGERATLSCRASQSVSSALAWYQQKPGQAPRLLIYDASNRATGIPARFSGSGSGTDFTLTISSLEPEDFAVYYCQQRSNWPTFGQGTKVEIKR | > 3000 ng/mL | 19.1 ng/mL | 4.44 ng/mL | 26 ng/mL | 26 ng/mL | – | – | –
2 | SG-559-02 - MP-PEG8-VKG-Camptothecin (antibody, human IgG1, kappa, V domains shown, MP-PEG8-VKG-Camptothecin drug-linker, average DAR of 8; sites not stated in the example) VH: QVQLVQSGAEVKKPGSSVKVSCKTSGDTFSTYAISWVRQAPGQGLEWMGGIIPIFGKAHYAQKFQGRVTITADESTSTAYMELSSLRSEDTAVYFCARKFHFVSGSPFGMDVWGQGTTVTVSS VL: EIVLTQSPATLSLSPGERATLSCRASQSVSSALAWYQQKPGQAPRLLIYDASNRATGIPARFSGSGSGTDFTLTISSLEPEDFAVYYCQQRSNWPTFGQGTKVEIKR | 283 ng/mL | 20.1 ng/mL | 6.72 ng/mL | 9.97 ng/mL | 10.2 ng/mL | – | – | –
3 | SG-559-03 - MP-PEG8-VKG-Camptothecin (antibody, human IgG1, kappa, V domains shown, MP-PEG8-VKG-Camptothecin drug-linker, average DAR of 8; sites not stated in the example) VH: QVQLVQSGAEVKKPGSSVKVSCKTSGDTFSTYAISWVRQAPGQGLEWMGGIIPIFGKAHYAQKFQGRVTITADESTSTAYMELSSLRSEDTAVYFCARKFHFVSGSPFGMDVWGQGTTVTVSS VL: not shown | 1380 ng/mL | 62.5 ng/mL | 12.2 ng/mL | 13.8 ng/mL | 15.1 ng/mL | – | – | –
4 | SG-559-04 - MP-PEG8-VKG-Camptothecin (antibody, human IgG1, kappa, V domains shown, MP-PEG8-VKG-Camptothecin drug-linker, average DAR of 8; sites not stated in the example) VH: QVQLVQSGAEVKKPGSSVKVSCKTSGDTFSTYAISWVRQAPGQGLEWMGGIIPIFGKAHYAQKFQGRVTITADESTSTAYMELSSLRSEDTAVYFCARKFHFVSGSGFGMDVWGQGTTVTVSS VL: not shown | 190 ng/mL | 23.3 ng/mL | 5.95 ng/mL | 10.7 ng/mL | 7.89 ng/mL | – | – | –
5 | SG-559-04 - vc-MMAE (antibody, human IgG1, kappa, V domains shown, vc-MMAE drug-linker, average DAR of 4; sites not stated in the example) VH: QVQLVQSGAEVKKPGSSVKVSCKTSGDTFSTYAISWVRQAPGQGLEWMGGIIPIFGKAHYAQKFQGRVTITADESTSTAYMELSSLRSEDTAVYFCARKFHFVSGSGFGMDVWGQGTTVTVSS VL: not shown | > 3000 ng/mL | 17.3 ng/mL | 3.42 ng/mL | 33.1 ng/mL | 24.3 ng/mL | – | – | –
6 | SG-559-03 - vc-MMAE (antibody, human IgG1, kappa, V domains shown, vc-MMAE drug-linker, average DAR of 4; sites not stated in the example) VH: QVQLVQSGAEVKKPGSSVKVSCKTSGDTFSTYAISWVRQAPGQGLEWMGGIIPIFGKAHYAQKFQGRVTITADESTSTAYMELSSLRSEDTAVYFCARKFHFVSGSPFGMDVWGQGTTVTVSS VL: not shown | > 3000 ng/mL | 16.4 ng/mL | 4.14 ng/mL | 20.9 ng/mL | 22.9 ng/mL | – | – | –
7 | SG-559-04 (antibody, human IgG1, kappa, V domains shown) VH: QVQLVQSGAEVKKPGSSVKVSCKTSGDTFSTYAISWVRQAPGQGLEWMGGIIPIFGKAHYAQKFQGRVTITADESTSTAYMELSSLRSEDTAVYFCARKFHFVSGSGFGMDVWGQGTTVTVSS VL: not shown | – | – | – | – | – | 25.6 nM | 390000 M⁻¹ s⁻¹ | 0.01 s⁻¹
8 | SG-559-06 (antibody, human IgG1, kappa, V domains shown) VH: QVQLVQSGAEVKKPGSSVKVSCKTSGDTFSTYAISWVRQAPGQGLEWMGGIIPIFGAAHYAQKFQGRVTITADESTSTAYMELSSLRSEDTAVYFCARKFHFVSGSPFGMDVWGQGTTVTVSS VL: not shown | – | – | – | – | – | 79.9 nM | 313000 M⁻¹ s⁻¹ | 0.025 s⁻¹
9 | SG-559-14 (antibody, human IgG1, kappa, V domains shown) VH: QVQLVQSGAEVKKPGSSVKVSCKTSGDTFSTYAISWVRQAPGQGLEWMGGIIPIFGKAHYAQKFQGRVTITADESTSTAYMELSSLRSEDTAVYFCARKFHFVSGSPFGMDVWGQGTTVTVSS VL: not shown | – | – | – | – | – | 8.9 nM | 399000 M⁻¹ s⁻¹ | 0.00355 s⁻¹
10 | SG-559-08 (antibody, human IgG1, kappa, V domains shown) VH: QVQLVQSGAEVKKPGSSVKVSCKTSGDTFSTYAISWVRQAPGQGLEWMGGIIPIFGKAAYAQKFQGRVTITADESTSTAYMELSSLRSEDTAVYFCARKFHFVSGSPFGMDVWGQGTTVTVSS VL: not shown | – | – | – | – | – | 66.6 nM | 329000 M⁻¹ s⁻¹ | 0.0219 s⁻¹
11 | SG-559-10 (antibody, human IgG1, kappa, V domains shown) VH: QVQLVQSGAEVKKPGSSVKVSCKTSGDTFSTYAISWVRQAPGQGLEWMGGIIPIFGKAHYAQKFQGRVTITADESTSTAYMELSSLRSEDTAVYFCARKFHFVSGAPFGMDVWGQGTTVTVSS VL: not shown | – | – | – | – | – | 288 nM | 410000 M⁻¹ s⁻¹ | 0.118 s⁻¹
12 | SG-559-15 (antibody, human IgG1, kappa, V domains shown) VH: QVQLVQSGAEVKKPGSSVKVSCKTSGDTFSTYAISWVRQAPGQGLEWMGGIIPIFGKAHYAQKFQGRVTITADESTSTAYMELSSLRSEDTAVYFCARKFHFVSGSPFGMDVWGQGTTVTVSS VL: not shown | – | – | – | – | – | 7.5 nM | 462000 M⁻¹ s⁻¹ | 0.00347 s⁻¹
13 | SG-559-16 (antibody, human IgG1, kappa, V domains shown) VH: QVQLVQSGAEVKKPGSSVKVSCKTSGDTFSTYAISWVRQAPGQGLEWMGGIIPIFGKAHYAQKFQGRVTITADESTSTAYMELSSLRSEDTAVYFCARKFHFVSGSPFGMDVWGQGTTVTVSS VL: not shown | – | – | – | – | – | 24.7 nM | 386000 M⁻¹ s⁻¹ | 0.00953 s⁻¹
14 | SG-559-03 (antibody, human IgG1, kappa, V domains shown) VH: QVQLVQSGAEVKKPGSSVKVSCKTSGDTFSTYAISWVRQAPGQGLEWMGGIIPIFGKAHYAQKFQGRVTITADESTSTAYMELSSLRSEDTAVYFCARKFHFVSGSPFGMDVWGQGTTVTVSS VL: not shown | – | – | – | – | – | 24.5 nM | 490000 M⁻¹ s⁻¹ | 0.012 s⁻¹
15 | SG-559-13 (antibody, human IgG1, kappa, V domains shown) VH: QVQLVQSGAEVKKPGSSVKVSCKTSGDTFSTYAISWVRQAPGQGLEWMGGIIPIFGKAHYAQKFQGRVTITADESTSTAYMELSSLRSEDTAVYFCARKFHFVSGSPFGMDVWGQGTTVTVSS VL: not shown | – | – | – | – | – | 4.3 nM | 381000 M⁻¹ s⁻¹ | 0.00162 s⁻¹
16 | SG-559-02 (antibody, human IgG1, kappa, V domains shown) VH: QVQLVQSGAEVKKPGSSVKVSCKTSGDTFSTYAISWVRQAPGQGLEWMGGIIPIFGKAHYAQKFQGRVTITADESTSTAYMELSSLRSEDTAVYFCARKFHFVSGSPFGMDVWGQGTTVTVSS VL: EIVLTQSPATLSLSPGERATLSCRASQSVSSALAWYQQKPGQAPRLLIYDASNRATGIPARFSGSGSGTDFTLTISSLEPEDFAVYYCQQRSNWPTFGQGTKVEIKR | – | – | – | – | – | 33.3 nM | 420000 M⁻¹ s⁻¹ | 0.014 s⁻¹
17 | SG-559-07 (antibody, human IgG1, kappa, V domains shown) VH: QVQLVQSGAEVKKPGSSVKVSCKTSGDTFSTYAISWVRQAPGQGLEWMGGIIPIFGRAHYAQKFQGRVTITADESTSTAYMELSSLRSEDTAVYFCARKFHFVSGSPFGMDVWGQGTTVTVSS VL: not shown | – | – | – | – | – | 10 nM | 285000 M⁻¹ s⁻¹ | 0.00284 s⁻¹
18 | SG-559-17 (antibody, human IgG1, kappa, V domains shown) VH: QVQLVQSGAEVKKPGSSVKVSCKTSGDTFSTYAISWVRQAPGQGLEWMGGIIPIFGKAHYAQKFQGRVTITADESTSTAYMELSSLRSEDTAVYFCARKFHFVSGSPFGMDVWGQGTTVTVSS VL: not shown | – | – | – | – | – | 12.5 nM | 456000 M⁻¹ s⁻¹ | 0.0057 s⁻¹
19 | SG-559-09 (antibody, human IgG1, kappa, V domains shown) VH: QVQLVQSGAEVKKPGSSVKVSCKTSGDTFSTYAISWVRQAPGQGLEWMGGIIPIFGKAFYAQKFQGRVTITADESTSTAYMELSSLRSEDTAVYFCARKFHFVSGSPFGMDVWGQGTTVTVSS VL: not shown | – | – | – | – | – | 25.5 nM | 260000 M⁻¹ s⁻¹ | 0.00664 s⁻¹
20 | SG-559-05 (antibody, human IgG1, kappa, V domains shown) VH: QVQLVQSGAEVKKPGSSVKVSCKTSGDTFSTYAISWVRQAPGQGLEWMGGIIPIAGKAHYAQKFQGRVTITADESTSTAYMELSSLRSEDTAVYFCARKFHFVSGSPFGMDVWGQGTTVTVSS VL: not shown | – | – | – | – | – | 119 nM | 357000 M⁻¹ s⁻¹ | 0.0424 s⁻¹
